Ends that are not written are not given here.
Molecular target: recombinant soluble empty (peptide free) HLA-DR1 (human)
Test: fluorescence polarisation
Details: both partners purified

{FAM}-PVSKMRMATPLLMQA [FAM-CLIP peptide (residues 87-101)]
t1/2: ~1.33 h

— PMC2580030 (PLoS ONE, 2008)
